Reference: paper PMC12401179, “Biophysical characterization and ion transport with cell‐based and proteoliposome reconstitution assays of invertebrate K^+‐Cl^− cotransporters” (FEBS Open Bio, 2025)

What was measured:
[1] = molecular target: Hydra vulgaris K+-Cl- cotransporter (HvKCC) (Hydra vulgaris); assay: SEC-MALS; SEC-MALLS; protein at 1.0 mg/mL on Superdex 200 10/300 in 20 mM HEPES pH 7.4, 150 mM NaCl, 50 mM KCl, 0.015% DDM, 0.003% CHS, 5% glycerol; protein conjugate analysis (ASTRA 6); single measurement
[2] = molecular target: Drosophila melanogaster K+-Cl- cotransporter (DmKCC) variant B (Drosophila melanogaster); assay: SEC; Superdex 200 10/300 gel filtration in 20 mM HEPES pH 7.4, 150 mM NaCl, 50 mM KCl, 0.015% DDM, 0.003% CHS, 5% glycerol; elution profile compared with that of HvKCC, whose dimer was verified by SEC-MALLS
DmKCC = molecular target: T1, DmKCC (Drosophila melanogaster, UniProt Q7KVH5); assay: K+ influx into proteoliposomes, fluorescent K+ probe (ION Potassium Green-2 TMA+); assay type: biochemical
T1 construct: gene kcc; full-length cDNA, N-terminal 8xHis and FLAG tags (no cleavage stated), Sf9 baculovirus expression, DDM/CHS Ni-NTA purified, reconstituted in azolectin proteoliposomes
T1 sequence (Q7KVH5 1-1028): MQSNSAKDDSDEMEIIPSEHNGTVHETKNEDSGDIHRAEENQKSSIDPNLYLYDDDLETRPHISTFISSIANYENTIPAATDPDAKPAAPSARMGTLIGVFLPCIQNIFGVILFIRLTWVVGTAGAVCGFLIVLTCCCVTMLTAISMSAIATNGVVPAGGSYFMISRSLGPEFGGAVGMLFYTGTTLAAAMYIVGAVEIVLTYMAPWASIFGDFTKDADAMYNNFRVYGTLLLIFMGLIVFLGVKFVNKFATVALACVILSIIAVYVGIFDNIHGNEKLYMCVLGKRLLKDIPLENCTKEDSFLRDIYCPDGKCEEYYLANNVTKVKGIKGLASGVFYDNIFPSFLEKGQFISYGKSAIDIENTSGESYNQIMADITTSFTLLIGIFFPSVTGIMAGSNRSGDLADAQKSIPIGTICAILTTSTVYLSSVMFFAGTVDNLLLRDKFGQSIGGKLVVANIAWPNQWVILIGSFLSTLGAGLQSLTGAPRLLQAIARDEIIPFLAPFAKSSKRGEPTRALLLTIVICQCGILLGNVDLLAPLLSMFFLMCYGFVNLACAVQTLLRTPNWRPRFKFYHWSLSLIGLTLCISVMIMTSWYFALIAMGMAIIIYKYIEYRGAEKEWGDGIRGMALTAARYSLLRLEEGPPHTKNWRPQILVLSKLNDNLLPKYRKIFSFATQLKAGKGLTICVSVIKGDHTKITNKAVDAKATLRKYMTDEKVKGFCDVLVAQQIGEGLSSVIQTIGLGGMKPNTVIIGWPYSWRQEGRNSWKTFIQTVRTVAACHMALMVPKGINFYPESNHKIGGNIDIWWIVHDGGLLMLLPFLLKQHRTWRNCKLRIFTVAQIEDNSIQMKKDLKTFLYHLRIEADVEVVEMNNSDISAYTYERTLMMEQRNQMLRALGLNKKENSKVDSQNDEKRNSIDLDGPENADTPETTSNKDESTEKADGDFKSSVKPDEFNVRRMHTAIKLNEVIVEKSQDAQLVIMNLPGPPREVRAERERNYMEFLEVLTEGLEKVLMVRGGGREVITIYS

“Hydra vulgaris K+-Cl- cotransporter (HvKCC) (natural protein)” gave a stoichiometry N [1] of 2.
“Drosophila melanogaster K+-Cl- cotransporter (DmKCC) variant B (natural protein)” was tested, and the stoichiometry N [2] was 2.
In the case of `O=S(=O)(O)c1cc(N=C=S)ccc1C=Cc1ccc(N=C=S)cc1S(=O)(=O)O` [DIDS, 4,4′‐diisothiocyano‐2,2′‐stilbenedisulfonic acid], the IC50 (DmKCC) is reported as 0.025 µM.
